Results reported in the supplement of paper PMC12042874.
± gives the uncertainty stated by the source.

Test: amyloid nucleation score (Sup35N fusion, yeast selection) (log enrichment); library NNK3; higher = more nucleation; inactive = no reads after selection
Method in brief: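 After 24 hours of induction with 100 μM copper sulfate, psi-negative yeast expressing peptides of 20 random codons fused to Sup35N were grown for 7 days at 30°C on medium lacking adenine and uracil. Input and output plasmid inserts were sequenced with Illumina, and sequences with under 100 input reads were discarded. Scores for nucleation are the DiMSum log enrichment of output over input reads, centred on the mode score of non-aggregating sequences.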

| Substance | amyloid nucleation score |
| --- | --- |
| GFETLYIYAVRGN | inactive |
| TYRRFMDNNGVIILILPNER | 1.74 ± 0.072 |
| PWSCISLFNFFGITPCWTLS | 0.491 ± 0.67 |
| WFLVNRDWFLGCQVTGEVLI | inactive |
| RTSLNGTLGVLSRYGWNISE | inactive |
| MLLVLR | 0.972 ± 0.1 |
| KGLCL | inactive |
| QAFDFTHHPFHDRSWNGHWS | inactive |
| SIGCSSGFGRCLDLG | inactive |
| TAFNHRMPGDLWRDDGGARV | 0.784 ± 0.24 |
| ITGHSVLCWGNSSSTMCEMG | inactive |
| EAHGIQLMMGLFAFR | 1.11 ± 0.15 |
| FYSWCR | inactive |
| VVDFSTYWY | inactive |
| HGVPYAIEASMLMFYLTFWR | inactive |
| RNVGKGNAVQSGPAWIERS | inactive |
| LILIRAVSG | inactive |
| ISKWESKSSSGLDFL | inactive |
| WTFNLFFNFRTFRLCCRKLV | 0.938 ± 0.096 |
| MKLCNVRGIKVFAFCSGSRR | 1.3 ± 0.1 |
| TCSHIIPYWYGVRNSQVRYS | inactive |
| KLGGLSMRTSYIMPGRTFTS | inactive |
| LQDIPLFFCCVLFCVATMAL | inactive |

| Substance | amyloid nucleation score |
| --- | --- |
| GMPKSWYMPVRMMQASSSAF | inactive |
| NSRNLR | inactive |
| SSVKMTDLRH | inactive |
| LPVEMKLLIMMRVPSFHFRH | inactive |
| EFKIALRRPINERAESLVTR | inactive |
| NKVYLGLTKLHSSDPSEMAC | 2.18 ± 0.067 |
| YLLLARIEKRFGFFVISDPG | inactive |
| MEMLVVIRIARRMYDGGCLS | -0.423 ± 0.45 |
| FWVRYGPNSQGVGPWTMHRW | 0.189 ± 0.74 |
| MMMCG | inactive |
| VSSTALGGNNSICHLSPFYT | inactive |
| VHTVTSCNLKDLLMKIHCTR | inactive |
| ITCLNLINGGYHP | -0.066 ± 0.3 |
| YYGFYTNYFMCGV | 2.77 ± 0.062 |
| RTLQVWHDWVVG | -0.555 ± 0.69 |
| TCSKPGSSSMHSAVGKTMSA | inactive |
| GSNYSWSLLL | inactive |
| VLTRTTRLTHSTTSICLLVL | inactive |
| FISDRGGLVRMNYPPRHW | inactive |
| SIYKE | inactive |
| YRLCRGFNSFI | inactive |
| KLLSSGFMMFWASYQTGYWR | inactive |
| NLEYDPIRHRNVLNPSWFCS | inactive |

| Substance | amyloid nucleation score |
| --- | --- |
| HVVFLSSMVATTLLWFG | 1.26 ± 0.12 |
| SYCKATRSVRQSNSARVVVR | inactive |
| FELTVLSSMVAIFL | 1.61 ± 0.089 |
| RYNLSFFLYFSQANNHQNLF | inactive |
| CCLYTVNNSDSLVNTTVGVG | inactive |
| VSHRYFTGRMIALIRGDCLV | inactive |
| PGRYFMHLLELV | inactive |
| RSLSRNFSLCMGGSDRSGGL | inactive |
| TVLFEIYMNEVMNGFLICST | inactive |
| SGLDRWDAEVVSILWVKLTV | 1.44 ± 0.094 |
| RDMYLLLREHGKGTIGKPWG | inactive |
| KAPDVLVNGRIL | inactive |
| KTSAVRLATNIVLTFHSILY | inactive |
| KIRIGW | inactive |
| VTCSRSLRLSKMFPNKMFLI | inactive |
| KLGIGFPWCGRLHIEHSKMR | inactive |
| CVSYAISNGLRMEFSKENQY | 0.415 ± 0.14 |
| YVFVRS | inactive |
| CIHTPDRCKVCNGITFDGRC | inactive |
| FCEGYFWCVI | inactive |
| YWFFIIIFNNIHSADGFIVS | inactive |
| IPFTENSVPPFKGLTVSSNV | inactive |
| GPIYWLLKGQNFESRVDTNL | inactive |

| Substance | amyloid nucleation score |
| --- | --- |
| LCSYSIESFALLHVFNEAFQ | inactive |
| FSNLYLVMTNCPSRDPPVYT | inactive |
| CSFTARFLHTMSPKKFKLGN | inactive |
| MRYSFRCF | inactive |
| FTQCNEAGCWHESDTNFMQC | 0.109 ± 0.75 |
| VPFVGLLSLALAFYSIKNSN | 0.921 ± 0.23 |
| RYDCRQPIAEFVVWAV | inactive |
| LHGNYVGQLLDLEIPVRGWI | inactive |
| LSIGFNLWSKLKYSRKVSGM | inactive |
| LSDSY | inactive |
| SEQFSPCLVGQLRMDYSWI | inactive |
| TTVMLTKLYMFEGPNRFTAL | 0.961 ± 0.084 |
| WSYTAKGVW | inactive |
| KGLSLGCIFKGLEFREQGVE | inactive |
| VCLLIRPID | inactive |
| VISFDVWSNRMCFLMGMIWH | inactive |
| DYQTHLCSEGLALLMRKGSR | inactive |
| MSKYVGRIGCLWGNSASRAR | inactive |
| SYCWRVSHGEYH | inactive |
| FLIIDAVLEPVGLLFFTKFS | inactive |
| CSMFVAIIPRWSFEWPLRW | inactive |
| LLVLVV | inactive |
| YALCPVRPGSQQGKLGVTFL | 0.503 ± 0.45 |

| Substance | amyloid nucleation score |
| --- | --- |
| MSSLDARIMSHYVYMVIDPV | inactive |
| DSYCYVWYKYSNVNVGD | inactive |
| QDFRLLSALRF | inactive |
| FEERHCGANWFGSYVIGRWR | 0.798 ± 0.21 |
| LIDMFIFNARVSNGDFYCPN | 0.718 ± 0.13 |
| EMLYTLIIVYLVNMYFCTQS | inactive |
| FPDIDLLLLWTHQRDRRSWF | 0.018 ± 0.45 |
| ISVGVLSVCCGIC | 2.57 ± 0.078 |
| NLWLKSFWSLRLFLRDL | 0.68 ± 0.23 |
| TEYFSRCRF | 0.36 ± 0.49 |
| FPGNLSLNGVIHMFLYDKLW | inactive |
| YNDWQKEMCIITICVL | inactive |
| RRIPITFIACNCTRTCWQMI | 0.394 ± 0.23 |
| GGAKVLTV | inactive |
| KGSTLLSNIARMVVTCKARP | inactive |
| TERYATNSLCSGIKMALRQV | inactive |
| SWNRGNLTM | inactive |
| IALLHQKHIG | inactive |
| SWDHTVNKLGTPTVGSGSND | inactive |
| LHESRVAGSNQLSRRDHERW | inactive |
| FCGAYLVVIAEFL | inactive |
| AENLVWRVMAYSARSTADYG | inactive |
| TVCVWSVKVMP | -0.492 ± 0.66 |

| Substance | amyloid nucleation score |
| --- | --- |
| LGNRQVRNLATYPDNYLTCT | inactive |
| LREPRGGSWRRLDCFKCRLG | inactive |
| SFCRRNISKVFYNFNNCATA | inactive |
| IVTIFSFQYGWGFLCTRLNF | inactive |
| FRIFVRRVI | 2.33 ± 0.084 |
| FGADSDQHLRRLLGAEGWCR | inactive |
| LSTNTERAFTAWNVIGELGD | inactive |
| HAFYALDKKVPVTQLKFARQ | -0.315 ± 0.84 |
| DIFCCWTDISDLF | inactive |
| PRCMYRLVFICGPGFRCSAG | -0.07 ± 0.47 |
| CCNFWRMPMTLCRNSCSSST | 0.718 ± 0.17 |
| SDIYWNGGLMYWICSMSVFI | 2.84 ± 0.078 |
| TARVMILP | inactive |
| LVVYYYLCACNYGARRFSWC | 1.15 ± 0.13 |
| WSWGTG | inactive |
| FQGSNCP | inactive |
| DMGRCCSRKLRRRTPYVKGR | inactive |
| SVSFFAF | inactive |
| ILCSSDCDSYSLQPLFGFPC | inactive |
| QYLHAGGHVIVGTWYEVNMG | 1.36 ± 0.16 |
| GSFGYNCVKFHSDGFQAGRG | inactive |
| TTLVGHASPVKAMTGTFTWH | inactive |
| TSDIFTSRYILAIDPRMNWV | inactive |

| Substance | amyloid nucleation score |
| --- | --- |
| ELSFPL | inactive |
| IYRLDSSTSCICHCFLILVF | inactive |
| KAKPVSKCA | inactive |
| ECYTSCVMIYIIHCYKNLRL | inactive |
| SYQWWLCFFSLFFIGGDFRT | inactive |
| LPLMDKLR | inactive |
| YLIGLRCWCSL | inactive |
| NARVDVRRVVLHAKMPSFTI | inactive |
| MRRCDVWKIYGYMLSPPLPR | inactive |
| HVLLDPEIITA | inactive |
| MLWRTDHMYY | inactive |
| TDWYVIF | inactive |
| RAICGMNFCNISHLT | 3.05 ± 0.067 |
| MTSSVP | inactive |
| HSSMIIRLWLDVVVQIRGQ | 0.575 ± 0.28 |
| IKMSLAELTIFRCLWDCPNS | 2.42 ± 0.077 |
| TVYYTLFATIWMLGVFFLNN | inactive |
| GLLPSKKILFLAILTHNRCW | inactive |
| LNVVKNYIGLVRRHIIRVHF | inactive |
| VYVCYIL | 1.73 ± 0.077 |
| MILTKSNSEVFEVGNKKLRV | inactive |
| RETLS | inactive |
